# Reference: patent publication US6066780A, “Modification of lignin synthesis in plants” (Zeneca Limited, priority 1991, dated 2000)
# Substrate: COc1cc(/C=C/CO)ccc1O
# Assay: Kinetic characterisation of purified tobacco CAD enzyme
# Type: biochemical
# Details: other: pure enzyme purified to homogeneity from tobacco stems; specific for NADP; pH 7.5
# Experimental: Six week old tobacco stems were frozen in liquid N, crushed with a hammer and homogenized in a Waring blender in buffer A. The homogenate was centrifuged at 45000×g for 30 min. Solid ammonium sulphate was added to the supernatant to bring it to 70% saturation and proteins were precipitated at 4° C. for 30 min. The precipitate was collected by centrifugation at 10,000 rpm for 1 hour. The pellet was resuspended in a minimum volume of buffer supplemented with 5% ethylene glycol, to reduce the ammonium sulphate concentration to approximately 40% saturation.
# The supernatant was desalted and applied to a Blue Sepharose column. The column was washed in at least 6 column volumes buffer including one column volume supplemented with 4 mM NAD. This wash elutes other alcohol dehydrogenases. Specific elution of CAD was performed with a gradient of 0-4 mM NADP in buffer B. CAD-containing fractions were pooled and 5% ethylene glycol was added.
# The pooled fractions from Blue Sepharose were applied to an FPLC Mono Q column. The column was washed until the Absorbance dropped to baseline levels. Proteins were eluted in a linear gradient of buffer with 20-400 mM Tris-HCl, pH 7.5.
# MonoQ fractions were applied to a column of 2'5'ADP-Sepharose. The column was washed with 6 column volumes buffer including one column volume supplemented with 4 mM NAD. […]
protein,measurement,value
"tobacco cinnamyl alcohol dehydrogenase (CAD, E.C. 1.1.1.195), purified from tobacco stems (Nicotiana tabacum) (protein, Using this protocol tobacco CAD was purified to homogeneity; from tissue; host or cells: stems of six week old tobacco plants) chain 1: MGSLDVEKSAIGWAARDPSGLLSPYTYTLRNTGPEDVQVKVLYCGLCHSDLHQVKNDLGMSNYPLVPGHEVVGKVVEVGADVSKFKVGDTVGVGLLVGSCRNCGPCKREIEQYCNKKIWNCNDVYTDGKPTQGGFANSMVVDQNFVVKIPEGMAPEQAAPLLCAGITVYSPFNHFGFNQSGFRGGILGLGGVGHMGVKIAKAMGHHVTVISSSNKKRQEALEHLGADDYLVSSDTDKMQEAADSLDYIIDTVPVGHPLELYLSLLKIDGKLILIGVINTPLQFISPMVMLGRKSITGSFIGSMKETEEMLDFCKEKGVTSQIEIVKMDYINTAMERLEKNDVSYRFVVDVAGSKLDQ chain 2: MGGLEVEKTTIGWAARDPSGVLSPYTYTLRNTGPEDVEVKVLYCGLCHTDLHQVKNDLGMSNYPLVPGHEVVGEVVEVGPDVSKFKVGDTVGVGLLVGSCRNCGPCKRDIEQYCNKKIWNCNDVYTDGKPTQGGFAKSMVVDQKFVVKIPEGMAPEQAAPLLCAGITVYSPLNHFGFKQSGLRGGILGLGGVGHMGVKIAKAMGHHVTVISSSNKKRQEALEHLGADDYLVSSDTDKMQEASDSLDYIIDTVPVGHPLEPYLSLLKIDGKLILMGVINTPLQFISPMVMLGRKSITGSFIGSMKETEEMLDFCKEKGVTSQIEIVKMDYINTAMERLEKNDVRYRFVVDVIGSKLDQ",Km,12 µM
